Laboratory results as given in the DeepSol protein solubility set.

assay: soluble on expression in E. coli; label from the status in PepcDB or PDB records

| Sequence | soluble on expression in E. coli |
| --- | --- |
| VLHAIEPLNLGPKPIFVHEQGLLVEWIDGITLTKDGIELEELLPIAATIHQYHSSSIPVVPFSYISRIDHYWLELEGKYVGSEFETLYKQWRSEPSVEQIPLALCHFDLGCYNLVRGDQGVKVIDWEYASLADPRLDL | not soluble |
| VLLKEGARGSAPSAPPPLAVPAFFPLEPLTVNLQSDDGVQHYLRVGLSLKLTDPKAQEYLTQHMPELRSRILLALSNKHPEQLATLEGKRALADELKTLIEQPTQPGNQSARVDDVLFTEFVVQ | not soluble |
| VLTEMRADARVAILEELSEAELNFTLAKLDNLSLIEWAESLPDDIFSLALQLISRDELDLYDDAKQYDDDEVGHWADRKIATLPFNVSVGRAKKLLKTNLFESHQYMHLINRAHKFHGIVQYTDILTADDSVKINTLKLEDCLVLNVHQPLSESIEAIEHSAVPSVAIVDDENTLIGQLDWQFAINTQREIYETRLMAGTGMDEGDDLFSPIIKSSKKRGV | not soluble |
| VMVFISSSLNSFRSEKRYSRSLTIAEFKCKLELVVGSPASCMELELYGADDKFYSKLDQEDALLGSYPVDDGCSIHVIDHSG | soluble |
| VNEIVVNPNATLDWQLALRQAAGKTDLARDMLQMLLDFLPEVRNKVEEQLVGENPEGLVDLIHKLHGSCGYSGVPRMKNLCQLIEQQLRSGTKEEDLEPELLELLDEMDNVAREASKIL | not soluble |
| VPTDCTENWVVVYLSGPLFFMSSERLKQTLLQLETKSGVVFSMRGVPSIDSTALDILEEFCLAAEGRGQQVQFAALQPEVEKMIRTIQGNQEKEYHFSVAEFLQTVHVA | not soluble |
| VQAVAVLKGDAGVSGVVKFEQASESEPTTVSYEIAGNSPNAERGFHICEFGDATNGCVSAGPHFNPFKKTHGAPTDEVRHVGDMGNVKTDENGVAKGSFKDSLIKLIGPTSVVGRSVVIHAGQDDLGKGDTEESLKTGNAGPRPACGVIGLTN | soluble |
| VREVCSEQAETGPCRAMISRWYFDVTEGKCAPFFYGGCGGNRNNFDTEEYCMAVCGSA | soluble |
| VRPAIKVGLSTASVYPLRAEAAFEYADRLGYDGVELMVWGESVSQDIDAVRKLSRRYRVPVLSVHAPCLLISQRVWGANPILKLDRSVRAAEQLGAQTVVVHPPFRWQRRYAEGFSDQVAALEAASTVMVAVENMFPFRADRFFGAGQSRERMRKRGGGPGPAISAFAPSYDPLDGNHAHYTLDLSHTATAGTDSLDMARRMGPGLVHLHLCDGSGLPADEHLVPGRGTQPTAEVCQMLAGSGFVGHVVLEVSTSSARSANERESMLAESLQFARTHLLR | not soluble |
| VRPHWRDLETLRLAAQRFGDGDLSSRTRIFRRSDIRTLAQHFNQMADRIESLISNQRELTNAVSHELRTPISRLSFELEQLNKQVDAEVRHDLIEDMRADLGELEEMVSELLTYARLEHGNVGSHREIVDAASWLDSVVADVALEAEAAGVTCEISACQVEQIRIEPRFMARAVINLLRNAIRHAHSRVEIALLDQGDSCQIRVNDDGPGIPADARQKIFEPFSRLDDSRDRSTGGFGLGLAIVHRVAQWHGGYAEALETPQGGASFRLTWERPR | not soluble |
| VRQLSQPLKRLVVAARQFGQGRSVRLPLGPETPSEMAEVYRAFNQMAEDIEQGGRERELMLAGVSHDLRTPLTRLRLSLELLPESEREMVEDMIRDIEDMDAILDQFLAFIRDGRDEPVEEGDLTDLVREVVAPFNQTREQVRMALQPVPAMPLRRVSMKRLLGNLIDNALNHGGGSVEVASYVAGESAAPYVVLSVLDRGQGIDPAEVDSIFNPFIRGDKARGGKGTGLGLAIVKRIAAQHGGSVELRNRDGGGLEARVCLPLGLLLPRGAA | not soluble |
| VRSSSRTPSDMPVAHVVANPQAEGQLQWKNAGANALLANGVELRDNQLVVPSEGLYLIYSQVLFSGQGCPSTHVLLTHTISRIAVSYQTPVNLLSAIRSPCQRETPEGAEANPWYEPIYLGGVFQLEPGDRLSAEINRPDYLDFASTGQVYFGIIAL | soluble |
| VSKDRLYFRQLLSGRDFAVGDMFATQMRNFAYLIGDRTTGDCVVVDPAYAAGDLLDALESDDMQLSGVLVTHHHPDHVGGSMMGFQLPGLAELLERASVPVHVNTHEALWVSRVTGIPVGDLITHEHGDKVSVGDIDIELLHTPGHTPGSQCFLLDGRLVAGDTLFLEGCGRTDFPGGDSDEMYRSLRQLAELPGDPTVFPGHWYSAEPSASLSEVKRSNYVYRPASLDQWRMLMGG | not soluble |
| VTDHVREADDANIDDLLGDLGGTARAERAKLVEWLLEQGITPDEIRATNPPLLLATRHLVGDDGTYVSAREISENYGVDLELLQRVQRAVGLARVDDPDAVVHMRADGEAAARAQRFVELGLNPDQVVLVVRVLAEGLSHAAEAMRYTALEAIMRPGATELDIAKGSQALVSQIVPLLGPMIQDMLFMQLRHMMETEAVNAGERAAGKPLPGARQVTVAFADLVGFTQLGEVVSAEELGHLAGRLAGLARDLTAPPVWFIKTIGDAVMLVCPDPAPLLDTVLKLVEVVDTDNNFPRLRAGVASGMAVSRAGDWFGSPVNVASRVTGVARPGAVLVADSVREALGDAPEADGFQWSFAGPRRLRGIRGDVRLFRVRRGATRTGSGGAAQDDDLAGSSP | soluble |
| VVMHPGFGAAALTGATGAAAAAAAAPTPQASPLGGRGTGASAEPATSAHSHGGGGGFGNVVSGTPMETTVSLPPQVSSHAGGRGASGSTDSSAEASTDHKRARTNNPGAGGARAAQAAALPSLDAVTSQQAAAAAGMAPAAGTLGAVPPAYPAVAVAPAAEVNGAMPYVDALTEQLRAVRLLQPTPPSSASSAPVRASAAAMADVTENVAVKAKGKKKGAAAAAAAQPPPPPLLPPAPRTEMDRRAALSGAAGAFMAACDEAVRELLLAMNFSDHDAEAIITGAAPPQLEHAASGVVSLVLRLKSSVLSHYIKHLNNAAARSQAAAASTAAVDGNAEDAADKHGAKATSAAKAPPAAGGGAGDAADQQLSTGEACLVQLQLYGGVGDALLQLLRSKLRGSACQLWALAHIVHPHPSRSEKESLAAYTGKSTKQVTDWFTNWRARHW | not soluble |
| VVPGPVHTSPREVAGPVDVLILAVKATQNDAARPWLTRLCDERTVVAVLQNGVEQVEQVQPHCPSSAVVPAIVWCSAETQPQGWVRLRGEAALVVPTGPAAEQFAGLLRGAGATVDCDPDFTTAAWRKLLVNALAGFMVLSGRRSAMFRRDDVAALSRRYVAECLAVARAEGARLDDDVVDEVVRLVRSAPQDMGTSMLADRAAHRPLEWDLRNGVIVRKARAHGLATPISDVLVPLLAAASDGPG | not soluble |
| VYNYMVDDTRSQLSIFMDEIAAQLEVDHTGHLSLAAQLSDPRFSRPYSGLYWSASTDSSLERSRSLWDKRIEYKGLDKDAYGARDEKLITLEKALYLPDYDGPIHIIVGIDEEPIKSTLQ | not soluble |
| WDPPYLQIAFDNPNLEFVLSAISEIPKSDHVIIEAGTPLIKRYGTDVISKIRQVRPDAFIVADLKTLDTGNLEARMVADAAGDAIVVSALAPISTIDKLIEEAHKTGIYAVMDTLNQQDPISVLKQLKVMPDVIELHRGIDIEGTEHAWGNIGEIKKIAPKALVAVAGGVRLDKVPVALSQGADILVVGRAITNAKDVREMAEQFINSLNK | soluble |
| WLEPYMTSVASVKDLSKINLVEALNARLGWPLNQHLDEWLPEHYQLPTGTKKRIRYQHGHEPVLSVRMQEVFGESTSPTVALGRKRLVLELLSPAQRPLQVTSDLAAFWNGSYKDVQKEMKGRYPKHVWPDDPANHVATTKTKRQLNND | not soluble |
| YAEIRARLYLMTGQTNKALNELRRLCNRFPEVNEFRLKYAGTLLDSEKYDEAYEQLQLIARTDSTSGLYHFAMASYYLGTNEKEAAINEMIKVAADKDVAPEQKLPIILRFIGTDTDEEDAPKKEYNILLEKILASHPTEVDARLFYAELLEMQGDSIHAMEVCRPITEFAPKEERAWKFMLGRAVTGQNHTEVHRISEQARQYLPGVPLFYLYDAISYYIEKKGSEAKHILQEALEHIDAEKDPNGLSDIYSQLGDLAYEENKPEEAFANYEKALELNPRNVGVLNNYAYFLAKEGGDLAKAERMAAQCVKLLPDNAVSLDTYGWVFFLRENYTLAKLYIEKALGLAADNPDADVVEHHGDVLYMLGEKEKAMLEWKRAKEIGGGGSPMLDKKIEQGKYIPEKKK | not soluble |
| YICRLPAEEIGFPEFYPRISRSMKSIKRPNLIYPAGKGLAVHIYPDKEDVRNYYIPIEPCLFQKLDSMLEEVEKLLIDVIHDQEINTNDPEEKKKLLVKALEKTCD | not soluble |
| YIGSGASQPNRTDVVWMVPSWTCKNEYSIDVEKYGILQNEDQHFVGGKQFAIFYEHSFGKIPYFKAQNESDPKNGGLPQMGDLEAHLIQAEKDINETIPDENFNGIAVIDIEEFRPMWELSWGPFSVYKTESIRLTRQQHPYWSTKQIEWQAERDYEKACQKFFIETLRLGKRLRPNAKWGYYLFPKCNGDVGQKSDTDCSTLFQKFNDNLHWLWGESTALFPSIYLYPSQKQNPEYNFVNSGALITETKRIKRNYCPSCEIHVFTKIEYNPYYTPDDFYSKQNLASTLDLAIKMNANSVVIWSTSQSIGSRCGSLQTYVDNTLGPYLQLTDRNLD | not soluble |
| YKIDFYRNFLVPLKVGKIKKIILDLRGNGGGMVLDARTFTDRFITKDAIFGYQRFKEDNNPFSYTPWIPCMTKTTGIGIKKEIPIVILLDNNSASMSEISTLMLKSQGKHVTVVGGYSAGATAGLGDSDQFNGGIRGKVSDYLEFYMPLLAMQDATHTVIEGIGIKPDLLVDPLTEDEVREMALSPFTHIDRTLKQAIEVLSNN | not soluble |
| YPQVIVDHPFLYLIRNRKSGIILFMGRVMNPHH | soluble |
| YSQVQLPFNDLLYIETSSRSHRVVLYTEKDRMEFTATLGDILKQEPRLFQCHRSFLVNPLNIFKVDRIDRLVYFQNGTTCLVSRNKVRDIVSIVDKYQKDRKR | not soluble |
